Among the data in US20190389958A1 (published 2019) are EC50 values, retold here.

For assay [1], the target named is T1, human CXCR4 (human, UniProt P61073 1-352).
T1 chain: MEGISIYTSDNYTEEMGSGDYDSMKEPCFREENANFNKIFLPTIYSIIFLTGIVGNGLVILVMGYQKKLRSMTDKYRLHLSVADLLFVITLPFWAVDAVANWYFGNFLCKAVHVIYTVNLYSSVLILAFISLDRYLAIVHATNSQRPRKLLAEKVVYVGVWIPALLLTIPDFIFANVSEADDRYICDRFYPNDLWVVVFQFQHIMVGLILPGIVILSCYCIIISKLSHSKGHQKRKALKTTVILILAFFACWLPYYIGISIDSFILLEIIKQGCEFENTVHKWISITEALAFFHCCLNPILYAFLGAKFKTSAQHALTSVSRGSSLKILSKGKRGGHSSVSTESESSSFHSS
In words: flow cytometry; Batch1. A general note: In flow cytometry, cells or beads pass a laser one at a time.

Assay [2] concerns the target T1, human CXCR4. In words: flow cytometry; Batch2.
The target of assay [3] is T1, human CXCR4. The experiment in a line: flow cytometry; Batch1.
Assay [4] deals with T1, human CXCR4. The experiment in a line: flow cytometry; Batch2.
Assay [5] has as its target T1, human CXCR4. In words: flow cytometry.
In assay [6] the target is T1, human CXCR4. In words: flow cytometry; Batch1.
In assay [7] the target is T1, human CXCR4. The experiment in a line: flow cytometry; Batch2.
Assay [8] deals with T1, human CXCR4. The experiment in a line: flow cytometry.

B1: V62.1-R108H-m43-m38 (antibody, V domains shown)
VH: EVQLLESGGGLVQPGGSLRLSCAASGFTFSSYAMSWVRQAPGKGLEWVSAISGSGGGSTRYADSVKGRFTISRDNSKNTLYLQMNSLRAEDTAVYYCARQGKTRVYGYHWHGYGSTHALDYWGQGTLVTVSS
VL: EIVLTQSPGTLSLSPGERATLSCRASQSVSSSYLAWYQQKPGQAPRLLIYGASSRATGIPDRFSGSGSGTDFTLTISRLEPEDFAVYYCQQWSSDSVTFGQGTKVEIKR
Consider B1, for which the EC50 (as a rule, the concentration needed to bring the measured effect to its halfway point) is about 0.6 nM in assay [1] and about 1.1 nM in assay [2].

B2: V62.1-R108H-m47-m38 (antibody, V domains shown)
VH: EVQLLESGGGLVQPGGSLRLSCAASGFTFSSYAMSWVRQAPGKGLEWVSAISGSGGTRYADSVKGRFTISRDNSKNTLYLQMNSLRAEDTAVYYCARQGKTRVYGYHWHGYGSTHALDYWGQGTLVTVSS
VL: B1 VL
Consider B2, for which the 50% effective concentration (EC50) in assay [3] is about 0.7 nM; in assay [4] it was about 0.8 nM.

B3: V62.1-R108H (antibody, V domains shown)
VH: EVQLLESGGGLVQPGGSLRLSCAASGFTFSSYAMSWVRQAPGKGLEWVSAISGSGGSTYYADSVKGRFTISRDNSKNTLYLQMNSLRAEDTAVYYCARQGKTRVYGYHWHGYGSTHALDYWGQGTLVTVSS
VL: EIVLTQSPGTLSLSPGERATLSCRASQSVSSSYLAWYQQKPGQAPRLLIYGASSRATGIPDRFSGSGSGTDFTLTISRLEPEDFAVYYCQQSDYSYPFTFGQGTKVEIKR
In assay [5], B3 yielded an EC50 of about 1.8 nM.

B4: V62.1-R108H-m80 (antibody, V domains shown)
VH: EVQLLESGGGLVQPGGSLRLSCAASGFTISPYSITWVRQAPGKGLEWVSQINSYNGKTYYADSVKGRFTISRDNSKNTLYLQMNSLRAEDTAVYYCARQGKTRVYGYHWHGYGSTHALDYWGQGTLVTVSS
VL: B3 VL
For the molecule B4, the EC50 in assay [6] and in assay [7] was about 1.2 nM throughout.

B5: V62.1 (antibody, V domains shown)
VH: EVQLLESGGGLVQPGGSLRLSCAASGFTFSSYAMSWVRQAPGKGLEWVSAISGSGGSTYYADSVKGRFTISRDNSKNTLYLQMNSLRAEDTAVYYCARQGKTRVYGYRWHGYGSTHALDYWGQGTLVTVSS
VL: B3 VL
With B5, in assay [8], the EC50 is about 2.2 nM.
